According to paper PMC3183262:

Experiments:
Assay in all cases: Ni-NTA pull-down of fluorescent DNA with competition, filter plate
IF2D1-Klf4-R9 = IF2D1-Klf4-R9 (human, UniProt O43474 1-513)
IF2D1-Sox2-R9 = IF2D1-Sox2-R9 (human, UniProt P48431 1-317)
IF2D1-Oct4-R9 = IF2D1-Oct4-R9 (human, UniProt Q01860 1-360)
Sequence of IF2D1-Oct4-R9 (Q01860 whole entry): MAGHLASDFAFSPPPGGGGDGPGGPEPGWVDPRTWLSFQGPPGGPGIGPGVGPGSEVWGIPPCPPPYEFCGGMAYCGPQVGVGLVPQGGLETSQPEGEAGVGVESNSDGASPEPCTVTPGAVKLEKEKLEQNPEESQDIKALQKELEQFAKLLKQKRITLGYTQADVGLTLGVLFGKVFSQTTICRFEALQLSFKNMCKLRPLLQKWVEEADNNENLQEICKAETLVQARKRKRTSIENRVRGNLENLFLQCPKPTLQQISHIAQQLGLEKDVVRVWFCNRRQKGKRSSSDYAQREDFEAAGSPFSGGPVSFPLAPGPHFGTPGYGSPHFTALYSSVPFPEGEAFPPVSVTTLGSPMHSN

Sequence of IF2D1-Klf4-R9 (O43474 whole entry): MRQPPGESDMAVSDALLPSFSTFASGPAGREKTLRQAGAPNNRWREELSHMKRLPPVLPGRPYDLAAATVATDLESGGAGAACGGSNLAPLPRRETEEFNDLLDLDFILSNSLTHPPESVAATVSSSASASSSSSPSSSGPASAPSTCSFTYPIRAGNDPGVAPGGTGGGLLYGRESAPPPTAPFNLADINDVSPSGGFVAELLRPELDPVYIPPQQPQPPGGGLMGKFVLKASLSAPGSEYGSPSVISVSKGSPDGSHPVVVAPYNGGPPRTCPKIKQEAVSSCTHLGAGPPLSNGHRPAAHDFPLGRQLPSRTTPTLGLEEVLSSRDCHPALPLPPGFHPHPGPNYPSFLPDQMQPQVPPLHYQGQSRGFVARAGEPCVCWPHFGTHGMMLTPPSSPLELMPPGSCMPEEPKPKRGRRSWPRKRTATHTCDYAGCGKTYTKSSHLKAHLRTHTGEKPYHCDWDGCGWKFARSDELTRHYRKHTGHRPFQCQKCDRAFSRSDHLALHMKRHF
Sequence of IF2D1-Sox2-R9 (P48431 whole entry): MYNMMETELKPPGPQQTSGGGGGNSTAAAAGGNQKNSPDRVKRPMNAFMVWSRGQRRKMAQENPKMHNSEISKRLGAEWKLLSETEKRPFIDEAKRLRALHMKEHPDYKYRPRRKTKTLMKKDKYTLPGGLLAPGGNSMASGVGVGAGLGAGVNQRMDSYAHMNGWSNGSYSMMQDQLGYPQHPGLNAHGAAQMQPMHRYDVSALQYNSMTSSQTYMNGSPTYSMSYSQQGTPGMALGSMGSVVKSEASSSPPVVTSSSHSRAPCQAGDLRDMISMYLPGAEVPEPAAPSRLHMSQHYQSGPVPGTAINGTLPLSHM

B1: Klf4 cognate probe (dsDNA)
DNA 1: CAGAGAACCCCACCCATAAACCCCACCCATAAACCCCACCCCG
DNA 2: CGGGGTGGGGTTTATGGGTGGGGTTTATGGGTGGGGTTCTCTG
Does B1 bind (IF2D1-Klf4-R9)?
Result: binds

B2: Sox2 cognate probe (dsDNA)
DNA 1: CAGAGGACAAAGGTGGACAAAGGTGGACAAAGCG
DNA 2: CGCTTTGTCCACCTTTGTCCACCTTTGTCCTCTG
Does B2 bind (IF2D1-Sox2-R9)?
Result: binds

B3: Oct4 cognate probe (dsDNA)
DNA 1: CAGAGAGATGCATGTGAGATGCATGTGAGATGCATCG
DNA 2: CGATGCATCTCACATGCATCTCACATGCATCTCTCTG
Does B3 bind (IF2D1-Oct4-R9)?
Result: binds
